Source: patent publication US7083949

What was measured:
[1] = target: human IL-6 (human) (UniProt P05231); assay: cell-based or functional assay
[2] = target: human IL-6 (human) (UniProt P05231); assay: 20 pM 125I-IL-6 preincubated with 500 pM mAb B-E8 for 20 hours, chase with 20 nM unlabelled IL-6, Protein G-Sepharose precipitation

human IL-6 (human), sequence (P05231 30-212 limits assumed): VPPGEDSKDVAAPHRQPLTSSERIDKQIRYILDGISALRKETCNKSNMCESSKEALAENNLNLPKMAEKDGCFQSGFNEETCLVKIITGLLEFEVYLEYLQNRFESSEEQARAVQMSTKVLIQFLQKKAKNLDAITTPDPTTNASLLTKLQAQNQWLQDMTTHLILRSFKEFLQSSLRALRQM

inhibition of IL-6-dependent proliferation of XG-1 cells (MTT) (fold molar excess over IL-6) [1]: 10
percent of initial 125I-IL-6 counts still bound after three days [2]: < 5%
B1: anti-IL-6 monoclonal neutralizing antibody B-E8 (antibody, from another filing, V domains shown)
VH: QVTLKESGPGILKPSQTLSLTCSFSGFSLSTSGMGVGWIRQPSGKGLEWLAHIWWDDDKYYNPSLKSQLTISKDTSRNQVFLKITSVDTADTATYYCARSYDDYLYYALDYWGQGTSVTVSS
VL: DIVMTQSPATLSVTPGDRVSLSCRASQSISDYLHWYQQKSHESPRLLIKSVSQSISGIPSRFSGSGSGSDFTLSINSVEPEDVGVYYCQNGHSFPLTFGAGTKLELK
